Measurements: US20220317133A1 (NORDIC BIOSCIENCE A S, published 2022)

T1: CPTGPQNYSP, C-terminal neo-epitope sequence of the α1 chain PIIINP (free calibrator peptide)
T1 construct: also called PRO-C3
T1 peptide: CPTGPQNYSP

T2: KPGVISVMGT, last 10 amino acids of the type VI collagen α3 chain (selection / immunogenic peptide)
T2 construct: also called PRO-C6
T2 peptide: KPGVISVMGT

T3: elongated peptide KPGVISVMGTA
T3 peptide: KPGVISVMGTA

T4: truncated peptide KPGVISVMG
T4 peptide: KPGVISVMG

B1: monoclonal antibody specific for Pro-C3 (monoclonal antibody NB61N-62) (antibody, V domains shown)
VH: EVQLQQSGPEVLKPGASVKMSCKASGYTFINYVIHWLKQKAGQGPEWIGYMNPYNDVPKNNAKFRGKARLTSDRSSTTAYMELNSLTSEDSAVYYCARGGFFGPLSYWGQGTLVTVSA
VL: DVLMTQTPLSLSVSLGDQASISCRSSQNIVYSNGDTYFEWYLQKPGQSPKLLIYKVSQRFSGVPDRFSGSGSGTDFTLKISRVETEDLGVYYCFQGAHDPPAFGGGTKLELKR
notes: Mouse IgG2A / kappa; also called PRO-C3 antibody
B2: monoclonal antibody specific for Pro-C6 (monoclonal antibody 10A3) (antibody, mouse IgG1, kappa, V domains shown)
VH: EVQLQQSGPVMVKPGTSVKTSCKASGYTFTDFNMNWVKQSHGKSLEWIGAINPHNGATSYNQKFSGKATLTVDKSSSTAYMELNSLTSDDSAVYYCARWGNGKNSWGQGTTLTVSS
VL: DVVMTQTPLSLPVNLGDQASISCRSSQRIVHSNGITFLEWYLQKPGQSPKLLIYRVSNRFSGVPDRFSGSGSGTDFTLKISRVEAEDLGLYYCFQGSHVPLTFGAGTRLELKR
notes: Mouse IgG1 / kappa from a hybridoma; the antibodies were purified on an IgG column afterwards; also called PRO-C6 antibody

How the values were obtained:
[1] = target: T1, CPTGPQNYSP, C-terminal neo-epitope …; assay: hybridoma screening, indirect ELISA on streptavidin-coated plates with the free peptide as calibrator
Procedure: A monoclonal antibody specific for Pro-C3 was developed as described in WO 2014/170312 (Nordic Bioscience, incorporated herein by reference) using sequence 145′-[…]-′153 (SEQ ID No: 14) of the α1 chain PIIINP as an immunogenic peptide. Briefly, generation of monoclonal antibodies was initiated by subcutaneous immunization of 4-5 week old Balb/C mice with 200 μl emulsified antigen and 50 μg PIIINP neo-epitope C-terminus sequence (OVA-CGG-[…] (SEQ ID No: 32)) using Freund's incomplete adjuvant. The immunizations were repeated every 2 weeks until stable serum titer levels were reached. The spleen cells were fused with SP2/0 myeloma cells to produce hybridoma, and cloned in culture dishes using the semi-medium method. The supernatants were screened for reactivity against calibrator peptide and native material in an indirect ELISA using streptavidin-coated plates. Biotin-CGG-[…] (SEQ ID No: 33) was used as screening peptide, while the free peptide […] (SEQ ID No: 14) was used as calibrator to test for further specificity of clones.

[2] = target: T2, KPGVISVMGT, last 10 amino acids of the …; assay: screening of hybridoma cell lines against peptides
Procedure: (§1) Mouse spleen cells were fused with SP2/0 myeloma fusion partner cells. The fusion cells were raised in 96-well plates and incubated in the CO2-incubator. Here standard limited dilution was used to promote monoclonal growth. Cell lines specific to the selection peptide and without cross-reactivity to either elongated peptide ([…] (SEQ ID No: 2), Chinese Peptide Company, China) or truncated peptide ([…] (SEQ ID No: 3), American Peptide Company, USA) were selected and sub-cloned. At last the antibodies were purified using an IgG column.

[3] = target: T3, elongated peptide KPGVISVMGTA; assay: screening of hybridoma cell lines against peptides
Procedure: as §1

[4] = target: T4, truncated peptide KPGVISVMG; assay: screening of hybridoma cell lines against peptides
Procedure: as §1

Binder	binding result [1]	binding result [2]	binding result [3]	binding result [4]
B1	binds	–	–	–
B2	–	binds	no binding	no binding
